The target in the series is MERS-CoV spike protein (S) (MERS-CoV, UniProt K9N5Q8 18-1296). The series can be described thus: EMSA.
Sequence of MERS-CoV spike protein (S) (K9N5Q8 18-1296): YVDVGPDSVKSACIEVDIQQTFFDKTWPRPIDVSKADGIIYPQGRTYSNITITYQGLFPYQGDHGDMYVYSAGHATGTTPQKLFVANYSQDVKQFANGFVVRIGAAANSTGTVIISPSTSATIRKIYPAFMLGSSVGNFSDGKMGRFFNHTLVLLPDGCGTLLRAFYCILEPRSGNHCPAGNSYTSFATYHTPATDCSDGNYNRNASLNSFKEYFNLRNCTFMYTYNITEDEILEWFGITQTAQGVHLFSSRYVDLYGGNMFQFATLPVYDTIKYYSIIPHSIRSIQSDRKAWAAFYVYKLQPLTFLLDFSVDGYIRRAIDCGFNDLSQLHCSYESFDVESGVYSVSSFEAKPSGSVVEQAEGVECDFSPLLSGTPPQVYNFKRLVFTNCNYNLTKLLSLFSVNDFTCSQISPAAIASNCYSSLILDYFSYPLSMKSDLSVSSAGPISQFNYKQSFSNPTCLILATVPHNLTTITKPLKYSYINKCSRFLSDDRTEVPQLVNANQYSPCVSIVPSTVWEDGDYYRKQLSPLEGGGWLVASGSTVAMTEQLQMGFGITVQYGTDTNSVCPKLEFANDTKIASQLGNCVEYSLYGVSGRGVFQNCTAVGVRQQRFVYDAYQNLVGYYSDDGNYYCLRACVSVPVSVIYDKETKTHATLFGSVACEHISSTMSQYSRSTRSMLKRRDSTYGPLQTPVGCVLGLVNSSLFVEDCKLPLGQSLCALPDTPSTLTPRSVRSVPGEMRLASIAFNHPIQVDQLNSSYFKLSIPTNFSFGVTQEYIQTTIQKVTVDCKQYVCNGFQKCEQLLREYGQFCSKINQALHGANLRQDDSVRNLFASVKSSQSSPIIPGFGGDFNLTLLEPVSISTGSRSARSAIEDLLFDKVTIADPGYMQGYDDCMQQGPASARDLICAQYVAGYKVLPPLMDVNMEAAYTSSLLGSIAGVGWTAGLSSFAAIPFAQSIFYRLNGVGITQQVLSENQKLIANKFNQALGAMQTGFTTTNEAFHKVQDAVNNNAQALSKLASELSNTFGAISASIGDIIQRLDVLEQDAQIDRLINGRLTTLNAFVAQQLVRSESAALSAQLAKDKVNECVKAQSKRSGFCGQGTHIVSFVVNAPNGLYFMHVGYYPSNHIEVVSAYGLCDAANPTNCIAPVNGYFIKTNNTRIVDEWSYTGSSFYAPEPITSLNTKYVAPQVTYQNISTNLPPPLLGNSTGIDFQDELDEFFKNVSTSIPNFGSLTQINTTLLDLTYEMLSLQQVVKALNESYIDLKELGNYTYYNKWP

B1: AIapt/FAM/SH-DNA 3WJ (MF-DNA) (structured_DNA)
DNA 1: GTGTGCATGGATAGCACGTAACGGTGTAGTAGATACGTGCGGGTAGGAAGAAAGGGAAATAGTTGTCCTGTTGTTGCCATGTGTATGTGGG
DNA 2: CCCACATACTTTGTTGATCC
DNA 3: GGATCAATCATGGCAA
modifications: 5' thiol on strand 3 (SH/3WJc)
Take B1: the binding result was “no binding”.

(Values after PMC7185628.)
